# B1: CD33 peptide TIQLNVTYV (residues 226-234, SEQ ID NO: 9) (peptide)
# peptide: TIQLNVTYV
# notes: Native CD33 nonamer, extracellular domain; also called CD33226-234
# Molecular target: T1, HLA-A2.1 on T2 cells (human)
# T1 construct: Peptide-receptive HLA-A2.1 on T2 cells; also called HLA-A2.1 MHC class I molecules
# Assay: peptide binding to HLA-A2.1+ T2 cells, complex stability; Brefeldin A 0 hr (T2 alone 226)
row,binding score (HLA-A2.1 on T2 cells),Binder
1,218,B1
2,641,YIISGDSPV (Modified CD33 peptide) [YIISGDSPV (SEQ ID NO: 3)]
3,426,YIISGDSPL (Modified CD33 peptide) [YIISGDSPL (SEQ ID NO: 15)]
4,488,YIILGDSPV (Modified CD33 peptide) [YIILGDSPV (SEQ ID NO: 12)]
5,840,YIISGISPV (Modified CD33 peptide) [YIISGISPV (SEQ ID NO: 6)]
6,677,ALISGDSPV (Modified CD33 peptide) [ALISGDSPV (SEQ ID NO: 16)]
7,724,YIISGDLPV (Modified CD33 peptide) [YIISGDLPV (SEQ ID NO: 13)]
8,728,YLISGDSPV (Modified CD33 peptide) [YLISGDSPV (SEQ ID NO: 7)]
9,247,YIISGDSWV (Modified CD33 peptide) [YIISGDSWV (SEQ ID NO: 14)]
10,301,YIIIGDSPV (Modified CD33 peptide) [YIIIGDSPV (SEQ ID NO: 11)]
11,687,YIGSGDSPV (Modified CD33 peptide) [YIGSGDSPV (SEQ ID NO: 10)]

# Molecular target: T1, HLA-A2.1 on T2 cells
# Assay: peptide binding to HLA-A2.1+ T2 cells, complex stability; Brefeldin A 6 hr (T2 alone 157)
row,binding score (HLA-A2.1 on T2 cells),Binder
1,159,B1
2,216,YIISGDSPV (Modified CD33 peptide) [YIISGDSPV (SEQ ID NO: 3)]
3,168,YIISGDSPL (Modified CD33 peptide) [YIISGDSPL (SEQ ID NO: 15)]
4,173,YIILGDSPV (Modified CD33 peptide) [YIILGDSPV (SEQ ID NO: 12)]
5,680,YIISGISPV (Modified CD33 peptide) [YIISGISPV (SEQ ID NO: 6)]
6,609,ALISGDSPV (Modified CD33 peptide) [ALISGDSPV (SEQ ID NO: 16)]
7,203,YIISGDLPV (Modified CD33 peptide) [YIISGDLPV (SEQ ID NO: 13)]
8,594,YLISGDSPV (Modified CD33 peptide) [YLISGDSPV (SEQ ID NO: 7)]
9,173,YIISGDSWV (Modified CD33 peptide) [YIISGDSWV (SEQ ID NO: 14)]
10,172,YIIIGDSPV (Modified CD33 peptide) [YIIIGDSPV (SEQ ID NO: 11)]
11,151,YIGSGDSPV (Modified CD33 peptide) [YIGSGDSPV (SEQ ID NO: 10)]

# Molecular target: T1, HLA-A2.1 on T2 cells
# Assay: peptide binding to HLA-A2.1+ T2 cells, complex stability; Brefeldin A 4 hr (T2 alone 187)
row,binding score (HLA-A2.1 on T2 cells),Binder
1,180,B1
2,380,YIISGDSPV (Modified CD33 peptide) [YIISGDSPV (SEQ ID NO: 3)]
3,217,YIISGDSPL (Modified CD33 peptide) [YIISGDSPL (SEQ ID NO: 15)]
4,205,YIILGDSPV (Modified CD33 peptide) [YIILGDSPV (SEQ ID NO: 12)]
5,839,YIISGISPV (Modified CD33 peptide) [YIISGISPV (SEQ ID NO: 6)]
6,692,ALISGDSPV (Modified CD33 peptide) [ALISGDSPV (SEQ ID NO: 16)]
7,307,YIISGDLPV (Modified CD33 peptide) [YIISGDLPV (SEQ ID NO: 13)]
8,745,YLISGDSPV (Modified CD33 peptide) [YLISGDSPV (SEQ ID NO: 7)]
9,208,YIISGDSWV (Modified CD33 peptide) [YIISGDSWV (SEQ ID NO: 14)]
10,208,YIIIGDSPV (Modified CD33 peptide) [YIIIGDSPV (SEQ ID NO: 11)]
11,167,YIGSGDSPV (Modified CD33 peptide) [YIGSGDSPV (SEQ ID NO: 10)]

# Molecular target: T1, HLA-A2.1 on T2 cells
# Assay: peptide binding to HLA-A2.1+ T2 cells, complex stability; Brefeldin A overnight (T2 alone 255)
row,binding score (HLA-A2.1 on T2 cells),Binder
1,404,B1
2,248,YIISGDSPV (Modified CD33 peptide) [YIISGDSPV (SEQ ID NO: 3)]
3,157,YIISGDSPL (Modified CD33 peptide) [YIISGDSPL (SEQ ID NO: 15)]
4,323,YIILGDSPV (Modified CD33 peptide) [YIILGDSPV (SEQ ID NO: 12)]
5,593,YIISGISPV (Modified CD33 peptide) [YIISGISPV (SEQ ID NO: 6)]
6,366,ALISGDSPV (Modified CD33 peptide) [ALISGDSPV (SEQ ID NO: 16)]
7,296,YIISGDLPV (Modified CD33 peptide) [YIISGDLPV (SEQ ID NO: 13)]
8,479,YLISGDSPV (Modified CD33 peptide) [YLISGDSPV (SEQ ID NO: 7)]
9,298,YIISGDSWV (Modified CD33 peptide) [YIISGDSWV (SEQ ID NO: 14)]
10,325,YIIIGDSPV (Modified CD33 peptide) [YIIIGDSPV (SEQ ID NO: 11)]

# Molecular target: T1, HLA-A2.1 on T2 cells
# Assay: peptide binding to HLA-A2.1+ T2 cells, complex stability; no Brefeldin A (T2 alone 215)
row,binding score (HLA-A2.1 on T2 cells),Binder
1,175,B1
2,547,YIISGDSPV (Modified CD33 peptide) [YIISGDSPV (SEQ ID NO: 3)]
3,428,YIISGDSPL (Modified CD33 peptide) [YIISGDSPL (SEQ ID NO: 15)]
4,465,YIILGDSPV (Modified CD33 peptide) [YIILGDSPV (SEQ ID NO: 12)]
5,591,YIISGISPV (Modified CD33 peptide) [YIISGISPV (SEQ ID NO: 6)]
6,603,ALISGDSPV (Modified CD33 peptide) [ALISGDSPV (SEQ ID NO: 16)]
7,619,YIISGDLPV (Modified CD33 peptide) [YIISGDLPV (SEQ ID NO: 13)]
8,701,YLISGDSPV (Modified CD33 peptide) [YLISGDSPV (SEQ ID NO: 7)]
9,209,YIISGDSWV (Modified CD33 peptide) [YIISGDSWV (SEQ ID NO: 14)]
10,263,YIIIGDSPV (Modified CD33 peptide) [YIIIGDSPV (SEQ ID NO: 11)]
11,515,YIGSGDSPV (Modified CD33 peptide) [YIGSGDSPV (SEQ ID NO: 10)]

# Molecular target: T1, HLA-A2.1 on T2 cells
# Assay: peptide binding to HLA-A2.1+ T2 cells, complex stability; Brefeldin A 2 hr (T2 alone 200)
row,binding score (HLA-A2.1 on T2 cells),Binder
1,173,B1
2,588,YIISGDSPV (Modified CD33 peptide) [YIISGDSPV (SEQ ID NO: 3)]
3,334,YIISGDSPL (Modified CD33 peptide) [YIISGDSPL (SEQ ID NO: 15)]
4,315,YIILGDSPV (Modified CD33 peptide) [YIILGDSPV (SEQ ID NO: 12)]
5,929,YIISGISPV (Modified CD33 peptide) [YIISGISPV (SEQ ID NO: 6)]
6,882,ALISGDSPV (Modified CD33 peptide) [ALISGDSPV (SEQ ID NO: 16)]
7,524,YIISGDLPV (Modified CD33 peptide) [YIISGDLPV (SEQ ID NO: 13)]
8,810,YLISGDSPV (Modified CD33 peptide) [YLISGDSPV (SEQ ID NO: 7)]
9,247,YIISGDSWV (Modified CD33 peptide) [YIISGDSWV (SEQ ID NO: 14)]
10,257,YIIIGDSPV (Modified CD33 peptide) [YIIIGDSPV (SEQ ID NO: 11)]

# Molecular target: T1, HLA-A2.1 on T2 cells
# Assay: T2 peptide binding assay with beta2-microglobulin, anti-HLA-A2.1 staining, flow cytometry; index against T2 + beta2-microglobulin only (1.0)
row,Fluorescence Index,Binder
1,1.04,"ALLALCLCL (also called CD33269-277) [CD33 peptide ALLALCLCL (residues 269-277, SEQ ID NO: 8)]"
2,0.99,B1

# — patent US7527793 (RUSH UNIVERSITY MEDICAL CENTER, dated 2009)
